Test results: the nanobody polyreactivity screen of Harvey et al. (2022)

test: yeast display, Sf9 membrane polyspecificity reagent, FACS + sequencing; frameworks hold sequencing errors
Outline: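 Nanobodies came from a synthetic yeast display library in Saccharomyces cerevisiae BJ5465, induced with galactose for 36–48 hours and stained for 1 hour at 4 °C with 10% biotinylated, detergent-solubilized Sf9 membrane reagent. Cells were enriched on streptavidin microbeads and then FACS-sorted, with low and high (top ~1%) gates set on anti-HA fluorescence for expression and streptavidin fluorescence for reagent binding. Each polyreactivity label reflects the gate a clone came from. Genes were amplified by colony PCR, sequenced by MiSeq 2 × 250 and filtered by CDR length.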

Question: Which “polyreactivity (PSR sort gate)” value does the source give for “QVQLVESGGGLVQAGGSLRLSCAASGSTFGYYAMGWYRQEPGKERELVAAISRGSSTYYADSVKGRFTISRDNAKNTVYLQMNSLKPEDTAVYYCAAKRYAYGSLDYWGQGTQVTVSS” here?
Answer: high polyreactivity

Question: For “QVQLVESGGGLVQAGGSLRLSCAASGSNITTYAMGWYRQAPGKERELVAAITDTSSTNYADSVKGRFTISRDNAKNTVYLQMNSLKPEVTAVYYCAVDLGYEYDWGQGTQVTVSS”, which “polyreactivity (PSR sort gate)” value is on record?
Answer: low polyreactivity

Question: With “QVQLVESGGGLVQAGGSLRLSCAASGSIFKYYAMGWYRQAPGKERELVAAITSSGARTYYADSVKGRFTISRDNAKNTVYLQMNSLKPEDTAVYYCRGYVRDQSKYDYWGQGTQVTVSS” as the sequence, how does the “polyreactivity (PSR sort gate)” value read?
Answer: high polyreactivity

Question: For “QVQLVESGGGLVQAGGSLRLSCAASGSIFTQYVMGWYRQAPGKERELGAAITWSGGNTYYADSVKGRFTISRDNAKNTVYLQMNSLKPEDTAVYYCAAYKPYSKYNYWGQGTQVTVSS”, which “polyreactivity (PSR sort gate)” value is on record?
Answer: high polyreactivity

Question: For “QVQLVESAGGLVQAGGSLRLSSAASGLIFPLYEMGWYRQAPGKERELVAAINWRGGSTYYADSVKGRFTISRDNAKNTVYLQMNSLKPEDTAVYYCAAGYLHRDSYIYDYWGQGTQVTVSS”, which “polyreactivity (PSR sort gate)” value is on record?
Answer: low polyreactivity

Question: Which “polyreactivity (PSR sort gate)” value does the source give for “PVQLVESGGGLVQAGGSLRLSCAASGFTFANYAMGWYRQAPGKERELVAAISRGGTSTYYADSVKGRFTISRDNAKNTVYFQMNSLKPEDTEVYFCNAVKVGYSLYDYWGQGTQVTVSS” here?
Answer: high polyreactivity

Question: Which “polyreactivity (PSR sort gate)” value does the source give for “QVQLVESGGGLVQAGGSLRLSCAASGITFSVNAMGWYRQAPGKERELVASISSGGSTNYADSVKGRFTISRDNAKNTVYLQMNSLKPEDTAVYYCAVAYYPHGREGAHFQYGYDYWGQGTQVTVSS” here?
Answer: low polyreactivity

Question: For “QVQLVESGGGLVQAGGSLRLSCAASGRISRGNAMGWYRHAPGKEREFVAAISWSGDGTYYADSVKGRFTISRDNAKNTVYLQMNSLKPEDTAVYYCADGATPRYSKYDYWGQGTQGTVSS”, which “polyreactivity (PSR sort gate)” value is on record?
Answer: low polyreactivity

Question: With “QVHLVESGGGLVQAGGSLRLSCAASGSIFGSYAMGWYRQAPGKERELVASITRVDSTNYADSVKGRFTISRDNAKNTVYLQMNSLKPEDTAVYYCNAGKTIDYRDGVGYDHWGQGTQVTVSS” as the sequence, how does the “polyreactivity (PSR sort gate)” value read?
Answer: low polyreactivity

Question: Which “polyreactivity (PSR sort gate)” value does the source give for “QVQLVESGGCLVQAGGSLRLTCAASGRIFDLYTMGWYRQATGIERELVAGIYGNGDGTYADSVKGLFTISRDNAKNPVYLQMNSLKPEDTAVYYCAADGIYIYHPYTRFDYCGQGTQVTVSS” here?
Answer: low polyreactivity

Question: For “QVQLVESGGGLVQGGGSLRLSCAASGSISDVYAMGWYRQAPGKERELVAANTSGASTYYADSVKGRFTISRDNAKNTVYLQMNSLKPEDTAVYYCAADSDSQWGMDYWGQGTQVTVSS”, which “polyreactivity (PSR sort gate)” value is on record?
Answer: low polyreactivity

Question: With “QVQLVESGGGLVQAGGSLRLSCAASGLIFSYYPMGWYRQAPGKERELVAAITGSGGTTYYADSVKGRFTISRDNAKNTVYLQMNSLKPEDTAVYYCATSPPEVWQRWYREYDYWGQVTQVTVSS” as the sequence, how does the “polyreactivity (PSR sort gate)” value read?
Answer: low polyreactivity

Question: Which “polyreactivity (PSR sort gate)” value does the source give for “QVQLVESGGGLVQAGGSLRLSCAASGFIFADYAMGWYRQAPGKERELVAAITRGGITYYADSVKGRFTISRDNAKNTVYLQMNSLKPEDTAVYYCAVDPSPRSYYNYYWGQGTQVTVSS” here?
Answer: high polyreactivity

Question: Which “polyreactivity (PSR sort gate)” value does the source give for “QVQLVESGGGLVQAGGSLRLSCAASGNAMGWYRQAPGNERELVAAITRRGGSTYYADSVKGRFTISRDNAKNTVYLQMNSLKPEDTAVYYCAADNPSYNLWYGYWGQGTQVTVSS” here?
Answer: low polyreactivity

Question: For “QVQLVESGGGLVQAGGSLRLSCAASGSIFVGYAMGWYRQAPGKERELVAAISRSGGRTYYADSVKGRFTISRDNAKNTVYLQMISLKPEDTAVYYCARQRYEYRTTYYYWGQGTQVTVSS”, which “polyreactivity (PSR sort gate)” value is on record?
Answer: high polyreactivity

Question: With “QVQLVESGGGLVQAGGSLRLSCAASGRTFGRYVMGWYRQAPGKERELVAAIDGSGGSTYYADSVKGRFTISRDNAKNTVYLQMNSLKPEDTAVYYCNADVGFVGGDYWGQGTQVTVSS” as the sequence, how does the “polyreactivity (PSR sort gate)” value read?
Answer: high polyreactivity

Question: For “QVQLVESGGGLVQAGGSLRLSCAASGFIFQYYAMGWYRQAPGKERELVAAITPSGTSTYYADSVKGRFTISRDNAKNTVYLQMNSLKPEDTAVYYCAAYYRYASDYWGQGTQVTVSS”, which “polyreactivity (PSR sort gate)” value is on record?
Answer: low polyreactivity

Question: For “QVQLVESGGGLVQAGGSLRLSCAASGRIFSWNTMGWYRQAPGKERELVAAISSSDGSTYYADSVKGRFTISRDNAKNTVYLQMNSVKPEDTAVYYCNKVVSRWNQRWRYSEGNYWGQGTQVTVSS”, which “polyreactivity (PSR sort gate)” value is on record?
Answer: high polyreactivity

Question: With “QVQLVESGGGLVQAGGSLRLSCAASGRILGRKAMGWYRHAPGKEREYVAAISSGGNTYYADSVKGRFTISRDNAKNTVYLQMKSLKPEDTAVYYCNADPDTYVSTITHDSWGQGTQVTVSS” as the sequence, how does the “polyreactivity (PSR sort gate)” value read?
Answer: low polyreactivity

Question: With “QFQLVESVGGLFQAGGSLRLSCDASGIIFIGNAMGWYRQAPGKERELVAAISRRGGRTYYADSVKGRFTISRDNAKNTVYLQMNSLKPEDTAVYYCAKRYYSYGKSGYYYWGQGTQVTVSS” as the sequence, how does the “polyreactivity (PSR sort gate)” value read?
Answer: high polyreactivity

Question: With “QVQLVESGGGLVQAGGSLRLSCAASGSTFYGYAMGWYRQAPGKERELVAAIRSGGRTYYADSVKGRFTISRDNAKNTVYLQMNSLKPEDTAVYYCNARSFNYRTFGGKMGYWGQGTQVTVSS” as the sequence, how does the “polyreactivity (PSR sort gate)” value read?
Answer: high polyreactivity

Question: Which “polyreactivity (PSR sort gate)” value does the source give for “QVQLVESGGGLVQAGGSLRLSCAASGYTFPQYAMGWYRQAPGKERELVAAITRRGGSTYYADSVKGRFTISRDNAKNTVYLQMNSLKPEDSAVYNCAADSYPYSHGGDYWGQGTQVTVSS” here?
Answer: high polyreactivity

Question: For “QVQLVESGGGLVQAGGSLRLSCAASGFIFSYYAMGWYRQAPGKERELVAGITRSGGSTYYADSVKGRFTISRDNAKNTVYLQMNSLKPEDTAVYYCAAGYFYHFSRYTNRYGYWGQGTQVTVSS”, which “polyreactivity (PSR sort gate)” value is on record?
Answer: high polyreactivity

Question: Which “polyreactivity (PSR sort gate)” value does the source give for “QVQLVESGGGLVQAGGSLRLSCAASGSTFGWNAMGRYRQAPGKERELVAAISSSGGSTNYADSVKGRFTISRDNAKNTVYLQMTSLKPEDTAVYYCAKARRPGYGYGYWGQGTQLTVSS” here?
Answer: low polyreactivity

Question: Which “polyreactivity (PSR sort gate)” value does the source give for “QVQLVESGGGLVQAGGSLRLSCAASGRTFYVNTMGWYRQATGKETELVARITRGGSTYYADSVKGRFTISRDNAKNTVYLQMNSLKPEDTAVYYCATDHFPVYSTHVIYEFDYWGQGTQVTVSS” here?
Answer: low polyreactivity

Question: Which “polyreactivity (PSR sort gate)” value does the source give for “QVQLVESGGGLVQAGGSLRISCAASGSTLYRNAMGWYRQAPGKERELVAAISRTGGRTYYADSVKGRCTISRDNANNTVYLQMNSLKPEETAVYYCNTLTPSYTSGTHTFYSWGQGTQVTVSS” here?
Answer: high polyreactivity

Question: With “QVQLVESRGGIVQAGGSLRLSCAASGRIFQYYAKGWYRQAPGKEWELVAAIISSGGRTYYADSVKGRFTISRDNAKKTVYVQMNSLKPEDTAVYYCNAVLSTRGMDFWGQGTQVTVSS” as the sequence, how does the “polyreactivity (PSR sort gate)” value read?
Answer: high polyreactivity

Question: For “QVQLVESGGGLVQAGGSLRLSCAASGRIFGYYAMGWYRQAPGKERELVDSISSNGTSTYYADSVKGRFTISRDNAKNTVYLQMNSLKPEDTAVYYCAASYWYDKAYDYWGHGTQVTVSS”, which “polyreactivity (PSR sort gate)” value is on record?
Answer: low polyreactivity

Question: With “QVQLVESGGGLVQAGGSLRLSCAASGFIFYFYAMGWYRQAPGKERELVAAISWSGGSTYYADSVKGRFTISRDNAKNTDYLQMNSLKPEDTAVYYCAAQSWSGDSTFWRYDYWGQGTQVTVSS” as the sequence, how does the “polyreactivity (PSR sort gate)” value read?
Answer: low polyreactivity

Question: With “QVQLVESGGGLVQAGGRLRLSCAASVNTFGANAMGWYRQAPGKESELVADITQSGGSTYYADSVKGRFTISRDNAKNTVYLQMNSLKPEDTALYYCNIVTRYYTPFEEYDYWGQGTQVTVSS” as the sequence, how does the “polyreactivity (PSR sort gate)” value read?
Answer: low polyreactivity

Question: Which “polyreactivity (PSR sort gate)” value does the source give for “QVQLVESGGGLVQAGGSLRLSGAASGRYLFTWTAMGWYRQAPGIERELVAGITSGGNTYYADSVKGRFTISRDNPKNTVYLQMNSLKPEDTAVYYCAKGDGRRGDPYSRYDYCGQGTQVTVSS” here?
Answer: low polyreactivity

Question: Which “polyreactivity (PSR sort gate)” value does the source give for “QVQLVESGGGLVQTGGSLRLSCAASGSTFNQYDMGWYRQAPGKERELVAAINRDGSTYYADSVKGRFTISRDNAKNTVYLQMNSLNPEDTAVYYWNAVGWYTYFYGSRKYNSWGQGTEVTVSS” here?
Answer: low polyreactivity

Question: With “QVQLVESGGGLVQAGGSLRLSCAASGRIFQAYAMGWYRQAPGKERELVASISYRGGITYYADSVKGRFTISRDNAKNTVYLQMNSLKPEDTEVYYCAAGRKGSMYYWGQGTQVTVSW” as the sequence, how does the “polyreactivity (PSR sort gate)” value read?
Answer: high polyreactivity

Question: With “QDQLVESGGGLVQAGGRLRLSCAASGSIFLRNAIGWYRQAPGKERDLVAAISKSGGSTYYADSVKGRFTISRDNAKNTVYLQMNSLKPEDTAVYYCAARTTYLYGMYYWGQGTQVTVSS” as the sequence, how does the “polyreactivity (PSR sort gate)” value read?
Answer: low polyreactivity

Question: With “QVQLVESGGGLVQAGGSLRLICAASGNSYIYNAMGSYRQAPGKEMELVAAISSRGGTTSDAVSVKGRFTISRDHAKNTVYFQMNSLKPEDTAVYYCAARQVVPSYRYPYGYWGQGTQVTVSS” as the sequence, how does the “polyreactivity (PSR sort gate)” value read?
Answer: high polyreactivity

Question: For “QVQLVESGGGLVQAGGSLRLSCAASGRTFEPNAMGWYRPAPGKERELVAAISSSDGSTYYADSVKGRFTISRDNAKNTVYLQMNSLKPEDTAVYYCAADAGYLYDWPYNYYYWGQGTQVTVSS”, which “polyreactivity (PSR sort gate)” value is on record?
Answer: low polyreactivity

Question: With “QVQLVESGGGLVQAGGILRLSCPASGRTFEYYAMGWYRQAPGKERELVASISFGGGSTYADSVKGRFTISRDNAKNTVYLQMNSLKPEDTAVYYCAATGGWYKHWFDYWGQGTQVTVSS” as the sequence, how does the “polyreactivity (PSR sort gate)” value read?
Answer: low polyreactivity

Question: With “LVQLVESGGRLVQAGGSLRLTCAATGSIFDGNAKGWYRQAPGKDRELVADISRGGSTYYADSVKGRFTISSDNAKNTVYFQLNSLKPEDTAVYDCTVEFFFWPYEYGYWGQGTQVTVSS” as the sequence, how does the “polyreactivity (PSR sort gate)” value read?
Answer: low polyreactivity

Question: Which “polyreactivity (PSR sort gate)” value does the source give for “QVQLVESGGGLVQAGGSLRLSCAASGRIFASNDMGWYRQAPGKEREWVAAITSGGSTYYADSVKGRFTISRDNAKNTVYLQMNSLKPEDTAVYYCAAGSAYYSQRYFAYGYYSWGQGTQVTVSS” here?
Answer: low polyreactivity

Question: With “QVQLVESGGGLVQAGGSLRLSCAASGFIFLQYPMGWYRQAPGKERDLVAAITSGGGTNYADSVKGRFTISRDNAKNTVYLQMNSLKPEDTAVYYCAARTWPWVLGATQDDYWGQGTQVTVSS” as the sequence, how does the “polyreactivity (PSR sort gate)” value read?
Answer: low polyreactivity

Question: With “QVQLVESGGGLVQAGGSLRLSCAASGRTFYNNAMGWYRQAPGKERELVAAISWSGGSTFYADSVKGRFTISRDNAKKTVYLQMNSLKPEDTAVYYCAALGRPYGSDYWGQGTQVTVSS” as the sequence, how does the “polyreactivity (PSR sort gate)” value read?
Answer: high polyreactivity
